We go through one substance from patent US20050048590A1.

The target in the test is Fibronectin from human plasma (human) (UniProt P02751). Kind of test: cell-based or functional assay.
Fibronectin from human plasma (human), sequence (P02751 32-2477): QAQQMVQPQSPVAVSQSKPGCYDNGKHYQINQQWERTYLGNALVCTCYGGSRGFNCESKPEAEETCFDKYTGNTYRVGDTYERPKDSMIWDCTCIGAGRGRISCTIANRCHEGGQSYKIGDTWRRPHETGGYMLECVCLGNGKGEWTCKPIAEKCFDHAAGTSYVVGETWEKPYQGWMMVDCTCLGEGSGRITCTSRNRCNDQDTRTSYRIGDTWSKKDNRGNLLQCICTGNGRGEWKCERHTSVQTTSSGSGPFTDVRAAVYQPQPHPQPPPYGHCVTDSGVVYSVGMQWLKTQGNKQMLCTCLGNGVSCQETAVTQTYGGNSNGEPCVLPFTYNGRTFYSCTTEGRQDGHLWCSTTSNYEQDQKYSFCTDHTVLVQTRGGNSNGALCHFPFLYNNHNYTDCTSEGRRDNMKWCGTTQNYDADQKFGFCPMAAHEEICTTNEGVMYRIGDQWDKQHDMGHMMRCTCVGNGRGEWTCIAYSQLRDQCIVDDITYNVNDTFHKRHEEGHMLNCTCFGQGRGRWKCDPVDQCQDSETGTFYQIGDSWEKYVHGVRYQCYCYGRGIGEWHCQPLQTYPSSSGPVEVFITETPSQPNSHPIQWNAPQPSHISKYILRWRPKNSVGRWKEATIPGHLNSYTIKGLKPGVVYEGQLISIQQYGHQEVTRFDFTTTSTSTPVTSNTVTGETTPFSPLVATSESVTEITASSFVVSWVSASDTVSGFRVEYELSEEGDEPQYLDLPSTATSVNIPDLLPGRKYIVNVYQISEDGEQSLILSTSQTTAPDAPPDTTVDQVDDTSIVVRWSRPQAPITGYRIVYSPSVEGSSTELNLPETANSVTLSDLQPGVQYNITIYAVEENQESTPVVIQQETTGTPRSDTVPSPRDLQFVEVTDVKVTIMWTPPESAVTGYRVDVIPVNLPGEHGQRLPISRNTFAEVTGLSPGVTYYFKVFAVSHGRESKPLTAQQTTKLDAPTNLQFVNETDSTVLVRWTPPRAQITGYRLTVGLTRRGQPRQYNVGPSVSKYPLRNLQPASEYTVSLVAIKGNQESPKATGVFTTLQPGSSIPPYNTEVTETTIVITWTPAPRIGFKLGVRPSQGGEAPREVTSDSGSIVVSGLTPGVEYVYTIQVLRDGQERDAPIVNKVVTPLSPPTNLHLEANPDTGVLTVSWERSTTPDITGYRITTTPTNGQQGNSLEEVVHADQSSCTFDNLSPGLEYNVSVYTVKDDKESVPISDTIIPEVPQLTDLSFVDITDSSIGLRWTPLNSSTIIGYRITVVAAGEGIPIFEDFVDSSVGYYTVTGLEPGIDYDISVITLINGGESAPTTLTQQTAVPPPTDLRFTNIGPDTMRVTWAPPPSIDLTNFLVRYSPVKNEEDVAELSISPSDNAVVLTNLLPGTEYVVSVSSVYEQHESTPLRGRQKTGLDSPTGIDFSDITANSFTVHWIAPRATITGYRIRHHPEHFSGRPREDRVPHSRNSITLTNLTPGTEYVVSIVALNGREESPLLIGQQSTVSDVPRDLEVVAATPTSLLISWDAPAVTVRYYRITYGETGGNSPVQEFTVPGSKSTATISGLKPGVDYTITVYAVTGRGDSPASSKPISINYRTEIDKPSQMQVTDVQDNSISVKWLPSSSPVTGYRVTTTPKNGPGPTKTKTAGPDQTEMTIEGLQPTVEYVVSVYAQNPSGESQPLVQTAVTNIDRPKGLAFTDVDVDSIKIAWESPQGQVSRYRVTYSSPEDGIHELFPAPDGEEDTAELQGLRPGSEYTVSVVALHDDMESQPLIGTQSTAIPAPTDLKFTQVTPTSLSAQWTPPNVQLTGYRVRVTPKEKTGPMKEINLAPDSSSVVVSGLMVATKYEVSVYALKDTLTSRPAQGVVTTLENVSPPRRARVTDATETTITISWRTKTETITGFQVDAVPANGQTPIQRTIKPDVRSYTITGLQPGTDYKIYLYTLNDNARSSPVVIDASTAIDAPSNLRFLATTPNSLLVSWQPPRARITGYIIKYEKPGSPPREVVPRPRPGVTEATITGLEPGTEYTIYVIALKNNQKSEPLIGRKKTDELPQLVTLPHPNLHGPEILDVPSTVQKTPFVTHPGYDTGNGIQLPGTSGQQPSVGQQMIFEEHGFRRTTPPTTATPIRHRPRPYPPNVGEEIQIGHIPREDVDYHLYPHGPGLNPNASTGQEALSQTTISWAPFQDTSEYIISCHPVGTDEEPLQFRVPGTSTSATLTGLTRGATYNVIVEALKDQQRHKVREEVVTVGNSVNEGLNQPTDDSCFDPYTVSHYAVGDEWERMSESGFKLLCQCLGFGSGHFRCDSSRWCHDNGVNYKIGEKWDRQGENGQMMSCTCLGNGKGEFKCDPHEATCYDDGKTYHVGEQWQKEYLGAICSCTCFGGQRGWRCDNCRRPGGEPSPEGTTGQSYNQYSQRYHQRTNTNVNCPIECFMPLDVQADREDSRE

yeast enolase (Sigma), sequence (P00924 2-437): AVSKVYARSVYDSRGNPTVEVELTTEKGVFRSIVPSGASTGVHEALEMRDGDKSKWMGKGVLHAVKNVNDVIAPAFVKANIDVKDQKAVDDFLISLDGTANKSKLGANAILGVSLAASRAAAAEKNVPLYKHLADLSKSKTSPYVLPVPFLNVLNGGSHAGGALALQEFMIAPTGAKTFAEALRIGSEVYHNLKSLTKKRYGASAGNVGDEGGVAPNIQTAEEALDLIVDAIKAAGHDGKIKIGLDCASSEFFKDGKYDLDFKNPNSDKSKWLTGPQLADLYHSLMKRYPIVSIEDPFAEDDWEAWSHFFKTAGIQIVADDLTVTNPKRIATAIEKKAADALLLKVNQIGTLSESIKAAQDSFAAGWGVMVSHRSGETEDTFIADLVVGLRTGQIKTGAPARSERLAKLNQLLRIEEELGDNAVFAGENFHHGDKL

For the substance “yeast enolase (Sigma) (from UniProt P00924 2-437)”, the inhibition of pneumococcal adherence to fibronectin coated wells is 98%.
